Assay results as given in patent publication US20130288274A1 (BIO RAD LABORATORIES, published 2013).
Residue numbers refer to the chain shown, from its start.

Target: the molecule itself
Test: SDS-PAGE and size-exclusion chromatography; self-association
Procedure: The affinity purified protein was analyzed by SDS-PAGE gel electrophoresis (FIG. 1). The D2-hexamers that were further purified on the size-exclusion column as described above were analyzed by SDS-PAGE (FIG. 1). […] This aggregation of the hexamers is so strong that it is not dissociated under the denaturing conditions used in SDS-PAGE. Additionally, both hexamer proteins migrated at the position of about 45 kd in a size-exclusion chromatogram. Without being bound to a particular theory, the surprising tendency of the hexamers to aggregate to form a trimer of hexamers may contribute to the improved immunoreactivity of the D2 hexamer.

B1: classic D2 hexamer with His tag (His-tagged recombinant deamidated gliadin protein) (other)
chain: MRGSHHHHHHGSPEFQPEQPQQSFPEQERPFGGGGSQPEQPQQSFPEQERPFGGGGSQPEQPQQSFPEQERPFGGGGSQPEQPQQSFPEQERPFGGGGSQPEQPQQSFPEQERPFGGGGSQPEQPQQSFPEQERPF
notes: also called classic DGP; DGP hexamer
B1: binds.

B2: lysine-containing D2 hexamer with His tag (His-tagged Recombinant Deamidated Gliadin Peptide with a lysine substituted for a glutamic acid residue at position … (other)
chain: B1 chain with E14K
notes: also called lysine-containing DGP; lysine-containing DGP hexamer
B2: binds.
